Experimental data: article PMC12533970, “Highly accurate protein structure prediction-based virtual docking pipeline accelerating the identification of anti-schistosomal compounds”

What was measured:
Test in all cases: EMSA; EMSA: 0.5 pmol FAM-RNA (heated 70 C 5 min, cooled on ice) with 1 ug WT or 2 ug mutant protein in 10 uL Beyotime reaction buffer (composition, salt and pH not stated), 20 min at room temperature; competitor 200 pmol unlabeled RNA; 6% native PAGE in 1x TBE pH 8.3
Details in all cases: protein: recombinant; tags: His+SUMO, cleaved with ULP1; single strand
[1] = target: SmU2AF65 Mutant 2 (Schistosoma mansoni, UniProt C4Q2F6 1-521, L255A;R270E;Q284R;V289A)
[2] = target: SmU2AF65 Mutant 1 (Schistosoma mansoni, UniProt C4Q2F6 1-521, L255A;R270A;Q284A;V289A)
[3] = target: SmU2AF65 (Schistosoma mansoni, UniProt C4Q2F6 1-521)

**Q.** Does UACAUAAAUUAAUAAGUAUUUUUACUUUUUUUUAUUUUCAAUUUCAACAG (ssRNA) [50-nt intron 3' region consensus RNA] bind [1]?
**A.** no binding

**Q.** Does UACAUAAAUUAAUAAGUAUUUUUACUUUUUUUUAUUUUCAAUUUCAACAG (ssRNA) [50-nt intron 3' region consensus RNA] bind [2]?
**A.** binds

**Q.** Does UACAUAAAUUAAUAAGUAUUUUUACUUUUUUUUAUUUUCAAUUUCAACAG (ssRNA) [50-nt intron 3' region consensus RNA] bind [3]?
**A.** binds
